Reference: PMC4350885

Target: Deinococcus radiodurans DNA polymerase III β subunit (β-clamp), short version of 362 amino acids (Deinococcus radiodurans strain R1)
Test: SEC; Superdex 75 10/30, purified Drβ-clamp, size and tertiary structure analysis

stoichiometry N: 2
Substance: Deinococcus radiodurans DNA polymerase III β subunit (β-clamp), short version of 362 amino acids (natural protein)
